The target in experiment [1] is Anti-NKp46_AB_F06 (human). Briefly: BLI; antibodies loaded at 5 µg/ml on anti-human-Fc (AHC) or anti-human-CH1 (FAB2G) biosensors; antigen in solution (EGFR 3.125-200 nM; NKp46 and NKp30 1.6-100 nM) in kinetics buffer (PBS, 0.1% Tween-20, 1% BSA); 25°C; 1:1 binding model.
The target in experiment [2] is Anti-NKp46_AB_H05 (human). The experiment is described as above.
Experiment [3] concerns the target FcRn-His6 (UniProt P55899). Put plainly: BLI; pH 6. As to conditions: bispecific antibody.
Experiment [4] addresses FcRn-His6 (UniProt P55899). Put plainly: BLI. The following applies: bispecific antibody.

Sequence of FcRn-His6 (P55899 24-297, chain 1 of 2): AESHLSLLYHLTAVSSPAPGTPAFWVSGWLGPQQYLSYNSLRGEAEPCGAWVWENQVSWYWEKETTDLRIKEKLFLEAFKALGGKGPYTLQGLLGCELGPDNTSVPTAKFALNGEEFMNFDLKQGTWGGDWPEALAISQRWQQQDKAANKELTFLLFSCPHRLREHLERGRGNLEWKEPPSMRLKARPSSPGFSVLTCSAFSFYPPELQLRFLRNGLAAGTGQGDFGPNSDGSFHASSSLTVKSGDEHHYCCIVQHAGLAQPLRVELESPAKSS
Sequence of FcRn-His6 (partner, as listed by the source, chain 2 of 2): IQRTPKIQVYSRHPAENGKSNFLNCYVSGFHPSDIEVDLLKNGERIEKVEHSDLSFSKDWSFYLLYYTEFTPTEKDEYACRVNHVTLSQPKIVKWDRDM
Sequence of Anti-NKp46_AB_F06 (human) (heavy, as listed by the source, chain 1 of 2): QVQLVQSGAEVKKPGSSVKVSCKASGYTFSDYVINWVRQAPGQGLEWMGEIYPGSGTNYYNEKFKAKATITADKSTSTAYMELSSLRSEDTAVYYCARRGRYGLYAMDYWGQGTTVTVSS
Sequence of Anti-NKp46_AB_F06 (human) (light, as listed by the source, chain 2 of 2): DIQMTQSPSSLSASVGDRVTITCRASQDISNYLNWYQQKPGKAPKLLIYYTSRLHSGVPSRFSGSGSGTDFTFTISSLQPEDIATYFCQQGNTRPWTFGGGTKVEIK
Sequence of Anti-NKp46_AB_H05 (human) (heavy, as listed by the source, chain 1 of 2): as the sequence (heavy, as listed by the source, chain 1 of 2) above
Sequence of Anti-NKp46_AB_H05 (human) (light, as listed by the source, chain 2 of 2): as the sequence (light, as listed by the source, chain 2 of 2) above

With “human EGFR ECD-His6 (from UniProt P00533 25-645) (receptor)”, the Kd in experiment [1] was found to be 29.4 nM; in experiment [2] it was 37.7 nM.
Regarding Anti-NKp46_EF_H05 (from UniProt P01857), in experiment [3], the dissociation constant (Kd) was 392 nM and the koff stood at 0.0852 s⁻¹.
In experiment [3], Anti-NKp46_AB_F06 (from UniProt P01857) yielded an equilibrium dissociation constant (Kd) of 407 nM and a dissociation rate constant (koff) of 0.0576 s⁻¹.
Anti-NKp46_AB_H05 (from UniProt P01857): in experiment [3], the dissociation constant Kd stood at 399 nM and the koff stood at 0.076 s⁻¹.
Anti-NKp46_EF_F06 (from UniProt P01857): the dissociation constant (Kd) in experiment [4] was determined as 477 nM. Further, the off-rate constant (koff) in experiment [3] came to 0.0736 s⁻¹.

Values taken from PMC10628450.
